Where a chain is given by its changes, count along the chain named.
How the values were obtained:
[1] = target: the molecule itself; assay: velocity sedimentation in a sucrose gradient
negative staining and EM = target: the molecule itself; assay: negative staining and EM

B1: recombinant Pil1 (natural protein, S. cerevisiae, UniProt P53252 1-339, looked up)
chain: MHRTYSLRNSRAPTASQLQNPPPPPSTTKGRFFGKGGLAYSFRRSAAGAFGPELSRKLSQLVKIEKNVLRSMELTANERRDAAKQLSIWGLENDDDVSDITDKLGVLIYEVSELDDQFIDRYDQYRLTLKSIRDIEGSVQPSRDRKDKITDKIAYLKYKDPQSPKIEVLEQELVRAEAESLVAEAQLSNITRSKLRAAFNYQFDSIIEHSEKIALIAGYGKALLELLDDSPVTPGETRPAYDGYEASKQIIIDAESALNEWTLDSAQVKPTLSFKQDYEDFEPEEGEEEEEEDGQGRWSEDEQEDGQIEEPEQEEEGAVEEHEQVGHQQSESLPQQTTA
B1: binds [1].

B2: recombinant pil1(4D) (natural protein, S. cerevisiae, UniProt P53252 1-339, looked up)
chain: B1 chain with S45D, S59D, S230D, T233D
B2: binds (negative staining and EM).

B3: recombinant Lsp1 (natural protein, S. cerevisiae, UniProt Q12230 1-341, looked up)
chain: MHRTYSLRNQRAPTAAELQAPPPPPSSTKSKFFGKASIASSFRKNAAGNFGPELARKLSQLVKTEKGVLRAMEVVASERREAAKQLSLWGADNDDDVSDVTDKLGVLIYELGELQDQFIDKYDQYRVTLKSIRNIEASVQPSRDRKEKITDEIAHLKYKDPQSTKIPVLEQELVRAEAESLVAEAQLSNITREKLKAAYSYMFDSLRELSEKFALIAGYGKALLELLDDSPVTPGEARPAYDGYEASRQIIMDAESALESWTLDMAAVKPTLSFHQTVDDVYEDEDGEEEEEPEIQNGDIPGQVVEEEEVEWTTEVPVDDEAHEADHHVSQNGHTSGSENI
B3: binds [1].

B4: lsp1ΔN (domain or fragment, S. cerevisiae, UniProt Q12230 36-341, looked up)
chain: ASIASSFRKNAAGNFGPELARKLSQLVKTEKGVLRAMEVVASERREAAKQLSLWGADNDDDVSDVTDKLGVLIYELGELQDQFIDKYDQYRVTLKSIRNIEASVQPSRDRKEKITDEIAHLKYKDPQSTKIPVLEQELVRAEAESLVAEAQLSNITREKLKAAYSYMFDSLRELSEKFALIAGYGKALLELLDDSPVTPGEARPAYDGYEASRQIIMDAESALESWTLDMAAVKPTLSFHQTVDDVYEDEDGEEEEEPEIQNGDIPGQVVEEEEVEWTTEVPVDDEAHEADHHVSQNGHTSGSENI
B4: binds (negative staining and EM).

B5: pil1ΔN (domain or fragment, S. cerevisiae, UniProt P53252 36-339, looked up)
chain: GGLAYSFRRSAAGAFGPELSRKLSQLVKIEKNVLRSMELTANERRDAAKQLSIWGLENDDDVSDITDKLGVLIYEVSELDDQFIDRYDQYRLTLKSIRDIEGSVQPSRDRKDKITDKIAYLKYKDPQSPKIEVLEQELVRAEAESLVAEAQLSNITRSKLRAAFNYQFDSIIEHSEKIALIAGYGKALLELLDDSPVTPGETRPAYDGYEASKQIIIDAESALNEWTLDSAQVKPTLSFKQDYEDFEPEEGEEEEEEDGQGRWSEDEQEDGQIEEPEQEEEGAVEEHEQVGHQQSESLPQQTTA
B5: binds (negative staining and EM).
